Molecular target: β2AR-Rluc (human; Renilla reniformis) (UniProt P07550)
Assay: BRET2, living HEK293T cells, Iso, untagged Gβ1γ2 co-expressed

agonist-promoted increase in BRET: 68%
Substance: Gαs-GFP10
